{"source": "patent EP4711453A1", "about": "“PHENYLALANINE LYASE MUTANT, AND CONJUGATE THEREOF OR PHARMACEUTICALLY ACCEPTABLE SALT THEREOF” (Peg-Bio Biopharm Co., Ltd. (Chongqing), priority 2023, dated 2024)", "molecules": {"B1": {"name": "PL54-5: polyethylene glycol conjugate of PAL4 (SEQ ID NO: 6) with PEG-SPA-5K, molar ratio 1:16, average degree of modification 13.60 (conjugate)", "chain": "MKTLSQAQSKTSSQQFSFTGNSSANVIIGNQKLTINDVARVARNGTLVSLTNNTDILQGIQASCDYINNAVKSGEPIYGVTSGFGGMANVAISREQASELQTNLVWFLKTGAGNKLPLADVRAAMLLRANSHMRGASGIRLELIKRMEIFLNAGVTPYVYEFGSIGASGDLVPLSYITGSLIGLDPSFKVDFNGKEMDAPTALRQLNLSPLTLLPKEGLAMMNGTSVMTGIAANCVYDTKILTAIAMGVHALDIQALNGTNQSFHPFIHNSKPHPGQLWAADQMISLLANSQLVRDELDGKHDYRDHELIQDRYSLRCLPQYLGPIVDGISQIAKQIEIEINSVTDNPLIDVDNQASYHGGNFLGQYVGMGMDHLRYYIGLLAKHLDVQIALLASPEFSNGLPPSLLGNRERKVNMGLKGLQICGNSIMPLLTFYGNSIADRFPTHAEQFNQNINSQGYTSATLARKSVDIFQNYVAIALMFGVQAVDLRTYKKTGHYDARASLSPATERLYSAVRHVVGQKPTSDRPYIWNDNEQGLDEHIAKISADIAAGGVIVQAVQDILPSLH", "modifications": "PEG-SPA-5K conjugate, ~13.6 PEG per molecule"}}, "key": {"[1]": {"test_system": "anti-PAL4 protein antibodies", "assay": "Anti-PAL4 protein antibody after multiple administrations in phenylketonuria model mice", "assay_type": "in vivo", "conditions": "Pah^enu mice"}, "[2]": {"test_system": "anti-PEG IgG and IgM antibodies", "assay": "Comparative immunogenicity with Pegvaliase: anti-PEG IgG and IgM antibodies after multiple administrations", "assay_type": "in vivo", "conditions": "Pah^enu mice, 3 mg/kg s.c. once weekly for four weeks", "source_text": "To evaluate the differences in pharmacodynamics and immunogenicity between the polyethylene glycol conjugate PL54-5 of directionally saturated modified phenylalanine lyase mutant and Pegvaliase (marketed drug), eight Pah^enu mice were allocated into two groups of four mice each, and administered with either PL54-5 (average degree of modification: 13.60, specific enzyme activity: 1.27 U/mg) from Table 3 of Example 2 or Pegvaliase Injection (manufactured by BioMarin, purchased lot number L161239, specification: 20 mg/mL/vial) at an administration dose of 3.0 mg/kg, once weekly via subcutaneous injection for four consecutive weeks. Blood samples were collected from each group of mice before administration and at 3 days and 7 days after each administration, respectively. Changes in serum phenylalanine concentration were measured (Reference: Judy Peat et al., Determination of Phenylalanine and Tyrosine by High Performance Liquid Chromatography-Tandem Mass Spectrometry) and anti-PEG-IgM/IgG antibody titers of each animal were determined at the end of the study (see Example 5 for details), to assess differences in pharmacodynamics and immunogenicity, as shown in FIG. 11 and FIG. 12."}, "[3]": {"test_system": "anti-PAL protein antibodies", "assay": "Anti-PAL protein antibody in rat serum after multiple administrations (bridging ELISA)", "assay_type": "in vivo", "conditions": "SD rats", "experimental": "To evaluate PEGylated conjugates of phenylalanine lyase or its mutants with different average degrees of modification, the inventors divided SD rats into four groups (n=6 per group). The animals were subcutaneously injected with PL54-1 and PL54-5 (average degrees of modification: 10.54 and 13.60, respectively) and PL5-1 and PL5-5 (average degrees of modification: 8.2 and 10.53, respectively) from Table 3 of Example 2 at a dose of 2 mg/kg once a week for four doses. Blood samples were collected on D1 (Day 1), D3 (Day 3), and D7 (Day 7) after the first dose, as well as on D3 and D7 following each subsequent dose. The concentrations of PL54-1, PL54-5, PL5-1, and PL5-5 in rat serum were determined by sandwich ELISA to assess plasma drug concentration maintenance after multiple administrations. Anti-PEG-IgM/IgG antibody titers in rat serum from each group were measured using indirect ELISA (coating with PEG-BSA, adding positive rat anti-PEG Abs/test serum samples, followed by HRP-conjugated anti-rat IgM/IgG detection), while bridging ELISA (coating with PAL protein, adding positive sheep anti-PAL Abs/acidified serum samples, followed by biotin-labeled PAL detection) was also performed. The plasma drug concentration results are shown in FIG. 4, and the antibody detection results after administration were shown in FIG. 4 and FIG. 5."}, "anti-PEG antibodies": {"test_system": "anti-PEG antibodies", "parameters": "species or system Pah^enu mice", "conditions": "mouse, in vivo", "experimental": "To evaluate the polyethylene glycol conjugate PL54 of site-saturation modified phenylalanine lyase mutant, […] Pah^enu mice were allocated into five groups (four experimental groups and one control group), with six mice in each group. PL54-5 (average degree of modification 13.60, specific enzyme activity 1.27 U/mg) from Table 3 of Example 2 was administered to phenylketonuria animal model mice at low, medium, and high doses of 0.5 mg/kg, 1.5 mg/kg, and 4.5 mg/kg, respectively, via subcutaneous injection. The high-dose group of 4.5 mg/kg also included a group receiving intramuscular administration, once per week. The control group was administered phosphate buffered saline as a placebo subcutaneously once weekly. Blood samples were collected from mice in each group at 1 h before administration and at 2, 5, and 7 days after administration for each group. The content of PL54-5 in serum, changes in phenylalanine concentration (Reference: Judy Peat et al., Determination of Phenylalanine and Tyrosine by High Performance Liquid Chromatography-Tandem Mass Spectrometry), and Anti-PEG-IgM/IgG antibody titers (see Example 5 for details) were detected by sandwich ELISA (see Example 5 for details), and their pharmacokinetics were evaluated, see FIG. 6 to FIG.9 for details."}, "[4]": {"assay": "Subcutaneous/intravenous pharmacokinetics in dogs (double-antibody sandwich ELISA)", "assay_type": "in vivo", "conditions": "beagle dogs; for dogs with accelerated blood clearance: 2 mg/kg once weekly", "experimental": "[…] Six beagle dogs were equally divided into two groups: the subcutaneous administration group and the intravenous administration group. […] Blood samples were collected from both groups on days 1, 3, 5, and 7 after the first administration, and on Day 1 and Day 3 after each subsequent administration. Serum plasma drug concentrations were measured using the double-antibody sandwich ELISA method (see Example 5 for details)."}, "[5]": {"assay": "Specific enzyme activity of phenylalanine lyase (trans-cinnamic acid formation, absorbance at 290 nm)", "assay_type": "biochemical", "experimental": "Phenylalanine lyase specifically catalyzes the conversion of phenylalanine into trans-cinnamic acid with the release of ammonia. […] Enzyme activity is defined as the amount of enzyme required to produce 1 µmol of trans-cinnamic acid per minute in buffer (100 mmol/L Tris-HCl, pH 8.5) at room temperature (25°C) as one unit of enzyme activity.\nThe specific enzyme activity of phenylalanine lyase and its mutants (i.e., PAL, PAL2, PAL3, and PAL4 proteins) prepared in Example 1 was evaluated by taking an appropriate amount of test sample and diluting it to 0.4 mg/ml using assay buffer (100 mmol/L Tris-HCl, pH 8.0). 2.9 ml of substrate solution (100 mmol/L Tris-HCl, 45 mmol/L Phe, pH 8.0) was placed in a cuvette, followed by addition of 0.1 ml of diluted test solution and immediate mixing. The changes in absorbance per minute were recorded at a wavelength of 290 nm, and the specific enzyme activity was calculated according to the formula. Enzyme activity (U/mg) = (AS−AO)VN × 10^6 /εLTV1 [formula]\nWhere AS and AO represent the absorbance of trans-cinnamic acid at the […] of the reaction, respectively; V is the total volume (L) of the reaction system; L is the optical path length of the cuvette (cm); ε is the molar extinction coefficient of trans-cinnamic acid (10238.1 L/(mol·cm)); T is the reaction time (min); N is the dilution factor of the test sample; V1 is the volume of test sample (ml).\nThe enzyme activity retention rate was calculated by comparing the specific enzyme activity of phenylalanine lyase mutants with the specific enzyme activity of the phenylalanine lyase. Table 2: Specific enzyme activity of phenylalanine lyase mutants\nThe specific enzyme activity of the polyethylene glycol conjugates of phenylalanine lyase and its mutants prepared in Step 1 of Example 2 was determined according to the method described in Step 1 of this example. The enzyme activity retention rate was calculated by comparing the specific enzyme activity of each conjugate with its specific enzyme activity prior to PEG modification (e.g., the enzyme activity retention rate of PL5-1 = specific enzyme activity of PL5-1 / specific enzyme activity of PAL protein). Table 3: Specific enzyme activity of PEGylated phenylalanine lyase mutants"}}, "data": [{"molecule": "B1", "values": [{"measurement": "anti-PAL4 protein antibodies", "setting": "[1]; intramuscular administration group", "value": "weak positivity"}, {"measurement": "anti-PAL4 protein antibodies", "setting": "[1]; subcutaneous administration group", "value": "negative"}, {"measurement": "immunogenicity after long-term administration", "setting": "[2]", "value": "significantly lower immunogenicity than pegvaliase"}, {"measurement": "anti-PAL protein antibodies, positive rats", "setting": "[3]; serum dilution 1:10, 7 days after the fourth dose", "value": "1/6"}, {"measurement": "anti-PAL protein antibodies", "setting": "[3]; serum dilution 1:10, after the first dose", "value": "very weak positivity"}, {"measurement": "S/N values of IgG and IgM antibodies (anti-PEG)", "setting": "anti-PEG antibodies", "value": "decreased with increasing number of administrations"}, {"measurement": "anti-PEG antibodies", "setting": "anti-PEG antibodies", "value": "positive"}, {"measurement": "bioavailability of subcutaneous administration relative to intravenous administration", "setting": "[4]; 2 mg/kg", "value": 64.4, "unit": "%"}, {"measurement": "dogs with accelerated blood clearance", "setting": "[4]; after multiple intravenous administrations", "value": "2/3"}, {"measurement": "dogs with accelerated blood clearance", "setting": "[4]; after multiple subcutaneous administrations", "value": "1/3"}, {"measurement": "peak time of blood drug concentration", "setting": "[4]; 2 mg/kg, single intravenous administration", "value": 1, "unit": "days"}, {"measurement": "peak time of blood drug concentration", "setting": "[4]; 2 mg/kg, single subcutaneous administration", "value": 3, "unit": "days"}, {"measurement": "Enzyme activity retention rate", "setting": "[5]; conjugate compared with its protein prior to PEG modification", "value": 83, "unit": "%"}, {"measurement": "Specific enzyme activity", "setting": "[5]; polyethylene glycol conjugates, method as for the proteins", "value": 1.27, "unit": "U/mg"}]}]}
